Reference: doi:10.1101/2022.07.04.498669

Biological target: paDXPS as measured by native mass spectrometry (Pseudomonas aeruginosa) (UniProt Q9KGU7)
Assay: native MS

## paDXPS as measured by native mass spectrometry (from UniProt Q9KGU7 1-627) (enzyme)
  stoichiometry N: 2
